Experimental data published in PMC2113761.

Target: FITC-labeled porcine brain tubulin (porcine) (UniProt P02550)
Experiment: co-sedimentation

Which fluorescence intensity (B/A) of the precipitate, labeled tubulin alone (6:0) does the source give for “FITC-labeled porcine brain tubulin (from UniProt P02550 1-451) (complex)” here?
The fluorescence intensity (B/A) of the precipitate, labeled tubulin alone (6:0) was 27.5.
